Experimental findings from publication PMC6303327, “A structural and dynamic model for the assembly of Replication Protein A on single-stranded DNA” are described below.

The target in series [1] is DBD-A S178D (Saccharomyces cerevisiae, UniProt P22336 178-294, S178D). As to the kind of experiment: MST; S178D did not affect dT7 binding; EMSA: 20 mM Tris pH 7.5, 150 mM NaCl, 10 mM MgCl2, 0.01% Tween-20, room temperature, 30 min; MST: MST-binding buffer (composition not in material), room temperature, 20 min; FRET: reaction buffer not given, 10 nM DNA. As to conditions: protein: recombinant; tags: GST removed by 3C cleavage; label: Cy5 (5'). For orientation: In EMSA bound probe runs differently from free probe, usually more slowly.

For series [2], the target named is DBD-A (Rfa1) (Saccharomyces cerevisiae, UniProt P22336 178-294). As to the kind of experiment: MST; EC50; EMSA: 20 mM Tris pH 7.5, 150 mM NaCl, 10 mM MgCl2, 0.01% Tween-20, room temperature, 30 min; MST: MST-binding buffer (composition not in material), room temperature, 20 min; FRET: reaction buffer not given, 10 nM DNA. As to conditions: protein: recombinant; tags: GST removed by 3C cleavage; label: Cy5 (5').

For series [3], the target named is T1, ScRPA (Rfa1-Rfa2-Rfa3 heterotrimer, wild type) (Saccharomyces cerevisiae, UniProt P22336;P26754;P26755 1-621;1-273;1-122). As to the kind of experiment: MST; apparent EC50; Hill slope 0.9 ± 0.1; EMSA: 20 mM Tris pH 7.5, 150 mM NaCl, 10 mM MgCl2, 0.01% Tween-20, room temperature, 30 min; MST: MST-binding buffer (composition not in material), room temperature, 20 min; FRET: reaction buffer not given, 10 nM DNA. As to conditions: protein: recombinant; tags: TEV-cleavable His6 on Rfa1; copies: 1;1;1; label: 5' Cy5.

The target of series [4] is T1, ScRPA (Rfa1-Rfa2-Rfa3 heterotrimer, …). As to the kind of experiment: FRET titration; 10 nM DNA; Hill fit; panel in Supplementary Fig. 14 gives 38.7 ± 0.8; EMSA: 20 mM Tris pH 7.5, 150 mM NaCl, 10 mM MgCl2, 0.01% Tween-20, room temperature, 30 min; MST: MST-binding buffer (composition not in material), room temperature, 20 min; FRET: reaction buffer not given, 10 nM DNA. As to conditions: protein: recombinant; tags: TEV-cleavable His6 on Rfa1; copies: 1;1;1; label: 5' Cy5, Cy3 after nt 29.

Series [5] has the same target. As to the kind of experiment: FRET titration; stoichiometric, X0 = 8.7 ± 0.3 nM at 10 nM DNA (1:1); EMSA: 20 mM Tris pH 7.5, 150 mM NaCl, 10 mM MgCl2, 0.01% Tween-20, room temperature, 30 min; MST: MST-binding buffer (composition not in material), room temperature, 20 min; FRET: reaction buffer not given, 10 nM DNA. Particulars: protein: recombinant; tags: TEV-cleavable His6 on Rfa1; copies: 1;1;1; label: 5' Cy5, 3' Cy3.

T1 sequence (P22336 whole entry, chain 1 of 3): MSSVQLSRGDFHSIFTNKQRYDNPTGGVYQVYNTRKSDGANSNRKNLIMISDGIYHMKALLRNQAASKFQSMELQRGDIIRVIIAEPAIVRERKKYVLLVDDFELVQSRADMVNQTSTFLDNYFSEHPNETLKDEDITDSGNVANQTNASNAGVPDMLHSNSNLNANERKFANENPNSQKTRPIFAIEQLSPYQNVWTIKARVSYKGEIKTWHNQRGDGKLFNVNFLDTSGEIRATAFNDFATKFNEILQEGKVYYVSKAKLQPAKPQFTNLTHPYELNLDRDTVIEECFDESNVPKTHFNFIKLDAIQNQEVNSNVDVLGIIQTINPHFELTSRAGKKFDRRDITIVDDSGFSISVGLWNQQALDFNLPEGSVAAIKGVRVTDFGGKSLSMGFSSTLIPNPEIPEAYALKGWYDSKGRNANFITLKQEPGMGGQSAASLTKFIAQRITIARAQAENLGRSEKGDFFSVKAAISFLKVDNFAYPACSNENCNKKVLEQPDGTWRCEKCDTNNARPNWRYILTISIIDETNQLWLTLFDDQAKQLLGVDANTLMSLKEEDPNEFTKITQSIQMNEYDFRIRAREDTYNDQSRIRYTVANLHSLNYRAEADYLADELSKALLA
T1 sequence (P26754 whole entry, chain 2 of 3): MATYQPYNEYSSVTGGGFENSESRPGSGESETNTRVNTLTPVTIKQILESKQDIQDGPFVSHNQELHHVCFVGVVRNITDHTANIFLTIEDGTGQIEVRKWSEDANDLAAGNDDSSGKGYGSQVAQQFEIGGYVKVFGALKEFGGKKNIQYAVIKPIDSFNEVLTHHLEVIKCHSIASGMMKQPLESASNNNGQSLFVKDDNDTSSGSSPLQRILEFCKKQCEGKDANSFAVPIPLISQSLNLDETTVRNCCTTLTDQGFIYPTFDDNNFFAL
T1 sequence (P26755 whole entry, chain 3 of 3): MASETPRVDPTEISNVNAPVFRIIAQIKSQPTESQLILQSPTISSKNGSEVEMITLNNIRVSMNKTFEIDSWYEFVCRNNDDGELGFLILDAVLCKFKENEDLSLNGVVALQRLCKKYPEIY
Chain of DBD-A (Rfa1) (P22336 178-294): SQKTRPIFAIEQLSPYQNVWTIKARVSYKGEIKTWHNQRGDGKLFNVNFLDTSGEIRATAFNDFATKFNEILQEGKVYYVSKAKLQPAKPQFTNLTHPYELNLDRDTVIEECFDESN
Chain of DBD-A S178D (P22336 178-294 S178D): as the sequence (P22336 178-294) above, with S1D counted along it

B1: dT7 (Cy5) (ssDNA)
DNA: TTTTTTT
B1: in series [1], the binding result was “binds”. Further, in series [2], the “apparent K (half saturation)” value was determined as 309 ± 18 nM.

B2: dT100 (Cy5) (ssDNA)
DNA: TTTTTTTTTTTTTTTTTTTTTTTTTTTTTTTTTTTTTTTTTTTTTTTTTTTTTTTTTTTTTTTTTTTTTTTTTTTTTTTTTTTTTTTTTTTTTTTTTTTT
Turning to B2, the “apparent K (half saturation)” value in series [3] is ~20 nM.

B3: dT90(1-30) (ssDNA)
DNA: TTTTTTTTTTTTTTTTTTTTTTTTTTTTTTTTTTTTTTTTTTTTTTTTTTTTTTTTTTTTTTTTTTTTTTTTTTTTTTTTTTTTTTTTTT
modifications: internal Cy3 in backbone
B3: the Kd in series [4] stood at 39.3 ± 0.9 nM.

B4: dT30 (FRET) (ssDNA)
DNA: TTTTTTTTTTTTTTTTTTTTTTTTTTTTTT
For the molecule B4, the binding result in series [5] is reported as “binds”.

As usually defined, the Kd is the free concentration of one partner at which half of the binding sites on the other are occupied at equilibrium, for simple one-to-one binding.
